Drawing on article PMC2668795, this text covers fold change of Munc18 co-precipitated with syntaxin1, ASMko versus wt synaptosomes for one substance.

The test deals with syntaxin1 (mouse (endogenous in brain synaptosomes)) (UniProt O35526). Nature of the test: co-IP; synaptosomes from wt, ASMko (7 months; also 1 month) or wt+Se mice, equal protein; 150 mM NaCl, 0.5% sodium deoxycholate, 1% NP40; syntaxin1 monoclonal antibody 4 h at 4°C, protein G sepharose beads overnight at 4°C; Western blot for syntaxin1, Munc18, SNAP25 and Vamp2. On the technique in general: In western blotting, separated proteins are transferred to a membrane and probed.
Sequence of UniProt O35526 (O35526 whole entry): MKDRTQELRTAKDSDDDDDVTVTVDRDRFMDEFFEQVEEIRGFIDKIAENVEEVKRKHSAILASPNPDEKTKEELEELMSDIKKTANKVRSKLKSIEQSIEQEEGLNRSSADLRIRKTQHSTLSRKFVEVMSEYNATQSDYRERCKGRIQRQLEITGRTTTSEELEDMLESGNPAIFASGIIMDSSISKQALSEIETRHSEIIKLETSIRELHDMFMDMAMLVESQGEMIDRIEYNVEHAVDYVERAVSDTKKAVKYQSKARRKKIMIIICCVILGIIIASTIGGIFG

Regarding “Munc18 (from UniProt O08599 1-594) (natural protein)”, the fold change of Munc18 co-precipitated with syntaxin1, ASMko versus wt synaptosomes was 1.9 fold.
